Patent US7078197

Target: 35S-labeled mRNA-peptide fusion prepared from mRNA 1 crosslinked to linker B, encoding the Flag and Strep-Tag II epitope
Assay: precipitation of 35S-labeled fusion on affinity resin, wash, scintillation counting

fusion binding (percent bound) [%] | Substance
54 | Anti-Flag M2 Affinity Gel (Sigma, MO) (antibody)
62 | StrepTactin Sepharose (Genosys, Tex.)
